Read-outs that look alike come from different tables or passages of the source. Where no end group is shown, it is not given here.
B1: Recombinant human integrin αvβ6 (complex)
chain 1: FNLDVDSPAEYSGPEGSYFGFAVDFFVPSASSRMFLLVGAPKANTTQPGIVEGGQVLKCDWSSTRRCQPIEFDATGNRDYAKDDPLEFKSHQWFGASVRSKQDKILACAPLYHWRTEMKQEREPVGTCFLQDGTKTVEYAPCRSQDIDADGQGFCQGGFSIDFTKADRVLLGGPGSFYWQGQLISDQVAEIVSKYDPNVYSIKYNNQLATRTAQAIFDDSYLGYSVAVGDFNGDGIDDFVSGVPRAARTLGMVYIYDGKNMSSLYNFTGEQMAAYFGFSVAATDINGDDYADVFIGAPLFMDRGSDGKLQEVGQVSVSLQRASGDFQTTKLNGFEVFARFGSAIAPLGDLDQDGFNDIAIAAPYGGEDKKGIVYIFNGRSTGLNAVPSQILEGQWAARSMPPSFGYSMKGATDIDKNGYPDLIVGAFGVDRAILYRARPVITVNAGLEVYPSILNQDNKTCSLPGTALKVSCFNVRFCLKADGKGVLPRKLNFQVELLLDKLKQKGAIRRALFLYSRSPSHSKNMTISRGGLMQCEELIAYLRDESEFRDKLTPITIFMEYRLDYRTAADTTGLQPILNQFTPANISRQAHILLDCGEDNVCKPKLEVSVDSDQKKIYIGDDNPLTLIVKAQNQGEGAYEAELIVSIPLQADFIGVVRNNEALARLSCAFKTENQTRQVVCDLGNPMKAGTQLLAGLRFSVHQQSEMDTSVKFDLQIQSSNLFDKVSPVVSHKVDLAVLAAVEIRGVSSPDHVFLPIPNWEHKENPETEEDVGPVVQHIYELRNNGPSSFSKAMLHLQWPYKYNNNTLLYILHYDIDGPMNCTSDMEINPLRIKISSLQTTEKNDTVAGQGERDHLITKRDLALSEGDIHTLGCGVAQCLKIVCQVGRLDRGKSAILYVKSLLWTETFMNKENQNHSYSLKSSASFNVIEFPYKNLPIEDITNSTLVTTNVTWGIQPAPMPV
chain 2: GCALGGAETCEDCLLIGPQCAWCAQENFTHPSGVGERCDTPANLLAKGCQLNFIENPVSQVEILKNKPLSVGRQKNSSDIVQIAPQSLILKLRPGGAQTLQVHVRQTEDYPVDLYYLMDLSASMDDDLNTIKELGSRLSKEMSKLTSNFRLGFGSFVEKPVSPFVKTTPEEIANPCSSIPYFCLPTFGFKHILPLTNDAERFNEIVKNQKISANIDTPEGGFDAIMQAAVCKEKIGWRNDSLHLLVFVSDADSHFGMDSKLAGIVIPNDGLCHLDSKNEYSMSTVLEYPTIGQLIDKLVQNNVLLIFAVTQEQVHLYENYAKLIPGATVGLLQKDSGNILQLIISAYEELRSEVELEVLGDTEGLNLSFTAICNNGTLFQHQKKCSHMKVGDTASFSVTVNIPHCERRSRHIIIKPVGLGDALELLVSPECNCDCQKEVEVNSSKCHHGNGSFQCGVCACHPGHMGPRCECGEDMLSTDSCKEAPDHPSCSGRGDCYCGQCICHLSPYGNIYGPYCQCDNFSCVRHKGLLCGGNGDCDCGECVCRSGWTGEYCNCTTSTDSCVSEDGVLCSGRGDCVCGKCVCTNPGASGPTCERCPTCGDPCNSKRSCIECHLSAAGQAREECVDKCKLAGATISEEEDFSKDGSVSCSLQGENECLITFLITTDNEGKTIIHSINEKDCPKPPNIP

Tests used:
R01-MW = assay: FACS
[1] = target: B1; assay: FACS; competition with yeast-displayed R01-MG
[2] = target: B1; assay: FACS; competition with yeast-displayed R01-MG

B1
Kd (R01-MW): 1.69 nM

GCILNGRTDLGTLLFRCRRDSDCPGACICRGNGYCG-NH2 (designed binder, disulfide (positions not given here)) [R01-MG synthetic cystine knot peptide (unlabeled precursor)]
IC50 [1]: 0.383 nM

{2‑(19F)fluoropropionyl}-GCILNGRTDLGTLLFRCRRDSDCPGACICRGNGYCG-NH2 (disulfide (positions not given here); not fully specified (bridges)) [[19F]FP-R01-MG-F1]
IC50 [2]: 0.541 nM

{(19F)fluoropropyl}-GCILNGRTDLGTLLFRCRRDSDCPGACICRGNGYCG (designed binder, disulfide (positions not given here); not fully specified (C-terminus)) [[^19F]FP-R01-MG-F2]
IC50 [1]: 0.469 nM
